Source: the supplement of paper PMC9876800

Test system: peptide library, one residue held at a place counted from the S/T acceptor
Experiment: relative phosphorylation of the sub-library (ratio to the mean residue at this position); higher = residue favoured
Conditions: human
Outline: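 Human or orthologue kinase constructs, purified and recombinant, were incubated under kinase-specific conditions in 384-well plates with biotinylated degenerate peptide sub-libraries. Each sub-library fixed one residue at one position around a central Ser/Thr. Incubations lasted 90 min with peptides at 50 μM and 50 μM ATP spiked with γ-32P-ATP, after which spots on streptavidin membranes were phosphorimaged and quantified by densitometry. Relative sub-library phosphorylation is a ratio to the mean residue at that position.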

Chain of HIPK4, construct: Full length (Q8NE63 whole entry, looked up): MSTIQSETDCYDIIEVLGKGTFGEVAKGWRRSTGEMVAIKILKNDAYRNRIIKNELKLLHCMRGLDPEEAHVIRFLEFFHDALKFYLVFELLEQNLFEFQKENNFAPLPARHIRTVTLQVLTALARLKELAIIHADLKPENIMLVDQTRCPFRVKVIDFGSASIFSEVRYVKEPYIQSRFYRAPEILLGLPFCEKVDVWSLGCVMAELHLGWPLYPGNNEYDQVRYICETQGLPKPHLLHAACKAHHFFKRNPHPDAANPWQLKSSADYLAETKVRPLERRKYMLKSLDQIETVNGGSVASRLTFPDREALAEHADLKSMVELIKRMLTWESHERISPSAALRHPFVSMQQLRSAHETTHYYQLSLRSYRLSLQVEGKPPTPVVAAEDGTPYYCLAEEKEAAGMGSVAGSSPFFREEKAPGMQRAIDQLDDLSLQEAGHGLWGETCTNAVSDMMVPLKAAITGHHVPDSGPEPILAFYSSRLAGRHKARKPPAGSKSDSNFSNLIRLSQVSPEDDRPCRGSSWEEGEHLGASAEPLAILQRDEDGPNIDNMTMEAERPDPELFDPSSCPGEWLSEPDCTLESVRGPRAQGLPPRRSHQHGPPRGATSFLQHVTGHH
Chain of HIPK3, construct: aa161-562 (Q9H422 161-562, looked up): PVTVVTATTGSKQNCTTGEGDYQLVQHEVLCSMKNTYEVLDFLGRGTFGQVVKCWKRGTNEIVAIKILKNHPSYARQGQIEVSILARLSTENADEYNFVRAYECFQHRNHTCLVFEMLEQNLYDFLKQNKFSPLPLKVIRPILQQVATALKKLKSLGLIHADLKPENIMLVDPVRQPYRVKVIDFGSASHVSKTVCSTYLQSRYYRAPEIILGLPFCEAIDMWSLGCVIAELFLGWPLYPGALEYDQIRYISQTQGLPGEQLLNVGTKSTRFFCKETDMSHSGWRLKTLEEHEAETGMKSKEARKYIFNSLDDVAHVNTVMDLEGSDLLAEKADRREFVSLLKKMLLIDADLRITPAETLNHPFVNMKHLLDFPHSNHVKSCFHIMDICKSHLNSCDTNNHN

HIPK3, construct: aa161-562 (from UniProt Q9H422)
relative phosphorylation
Conditions | at +1 | at +2 | at +3 | at +4 | at -1 | at -2 | at -3 | at -4 | at -5
A fixed | 0.905 | 1.05 | 1.03 | 0.883 | 1.43 | 2.27 | 1.26 | 1.07 | 0.866
D fixed | 0.116 | 0.665 | 0.422 | 0.718 | 0.435 | 0.171 | 0.37 | 0.534 | 0.617
E fixed | 0.135 | 0.371 | 0.338 | 0.569 | 0.46 | 0.158 | 0.375 | 0.63 | 0.608
F fixed | 0.541 | 1.27 | 0.965 | 1.07 | 0.843 | 0.617 | 0.713 | 1.33 | 1.32
G fixed | 0.8 | 1.07 | 0.954 | 1.02 | 1.07 | 0.734 | 1.06 | 0.962 | 0.863
H fixed | 0.422 | 1.3 | 0.962 | 1.05 | 0.765 | 0.465 | 0.687 | 0.859 | 1.03
I fixed | 0.656 | 0.842 | 1.26 | 1.17 | 1.07 | 1.24 | 0.682 | 1.05 | 0.913
K fixed | 0.324 | 1.33 | 0.598 | 1.1 | 1.12 | 0.745 | 0.858 | 1.01 | 1.1
L fixed | 0.553 | 1.02 | 1.05 | 0.844 | 0.932 | 0.757 | 0.586 | 0.842 | 1.15
M fixed | 0.706 | 1.34 | 1.2 | 1.05 | 1.17 | 0.835 | 0.752 | 1.09 | 0.951
N fixed | 0.21 | 0.801 | 0.714 | 0.894 | 0.585 | 0.528 | 0.481 | 0.545 | 0.771
P fixed | 8.32 | 0.967 | 2.43 | 1.1 | 1.52 | 2.41 | 0.72 | 1.04 | 1.17
Q fixed | 0.273 | 0.703 | 0.762 | 1.01 | 0.907 | 0.626 | 0.679 | 0.799 | 0.984
R fixed | 1.5 | 1.52 | 1.12 | 1.36 | 2.1 | 3.19 | 6.13 | 2.47 | 1.8
V fixed | 0.649 | 0.847 | 1.22 | 0.951 | 0.929 | 1.2 | 0.614 | 0.918 | 0.812
W fixed | 0.535 | 1 | 0.97 | 1.16 | 0.76 | 0.568 | 0.553 | 0.896 | 0.789
Y fixed | 0.351 | 0.895 | 0.998 | 1.05 | 0.913 | 0.492 | 0.482 | 0.956 | 1.25
pThr fixed | 0.236 | 0.362 | 0.387 | 0.458 | 0.427 | 0.737 | 0.512 | 0.745 | 0.925
pTyr fixed | 0.283 | 0.331 | 0.529 | 0.601 | 0.585 | 0.296 | 0.624 | 0.7 | 0.939

HIPK4, construct: Full length (from UniProt Q8NE63)
relative phosphorylation
Conditions | at +1 | at +2 | at +3 | at +4 | at -1 | at -2 | at -3 | at -4 | at -5
A fixed | 0.793 | 1.38 | 1.1 | 1.63 | 1.15 | 2.12 | 0.851 | 0.995 | 0.967
D fixed | 0.277 | 0.726 | 0.71 | 0.68 | 0.67 | 0.463 | 0.711 | 0.697 | 0.886
E fixed | 0.34 | 0.618 | 0.505 | 0.578 | 0.693 | 0.354 | 0.477 | 0.702 | 0.719
F fixed | 0.339 | 1.46 | 1.08 | 1.11 | 0.616 | 0.478 | 0.453 | 0.816 | 1.13
G fixed | 0.586 | 1.58 | 1.49 | 1.07 | 1.03 | 1.07 | 0.877 | 1.27 | 1.26
H fixed | 0.671 | 1.13 | 0.857 | 0.716 | 0.991 | 0.507 | 0.649 | 0.803 | 1.08
I fixed | 0.427 | 0.675 | 0.857 | 1.31 | 0.589 | 0.837 | 0.807 | 0.82 | 0.841
K fixed | 1 | 0.686 | 0.565 | 0.63 | 1.72 | 0.808 | 0.926 | 0.864 | 0.833
L fixed | 0.508 | 0.696 | 0.816 | 1.64 | 0.783 | 0.916 | 0.669 | 1.12 | 0.968
M fixed | 0.403 | 0.805 | 0.812 | 1.53 | 0.836 | 0.602 | 0.661 | 0.895 | 0.735
N fixed | 1.15 | 0.806 | 0.752 | 0.59 | 0.984 | 0.875 | 0.803 | 0.639 | 0.855
P fixed | 5 | 2.12 | 3.82 | 1.33 | 2.03 | 4.06 | 1.14 | 2.12 | 1.15
Q fixed | 0.894 | 0.753 | 0.657 | 0.631 | 1.23 | 0.639 | 0.799 | 0.759 | 0.842
R fixed | 3.2 | 0.719 | 0.525 | 0.503 | 1.57 | 1.35 | 5.38 | 2.01 | 1.47
V fixed | 0.684 | 0.669 | 0.647 | 1.28 | 0.687 | 1.09 | 0.615 | 0.67 | 0.793
W fixed | 0.314 | 0.988 | 0.947 | 1 | 0.592 | 0.401 | 0.562 | 0.955 | 1.25
Y fixed | 0.415 | 1.2 | 0.857 | 0.785 | 0.836 | 0.434 | 0.626 | 0.867 | 1.22
pThr fixed | 0.405 | 0.51 | 0.71 | 0.616 | 0.417 | 0.585 | 0.547 | 0.844 | 0.67
pTyr fixed | 0.36 | 0.516 | 0.998 | 0.728 | 0.619 | 0.404 | 0.561 | 0.697 | 0.898
